Source: PMC4017622
Like-named read-outs stand apart in the source and are kept apart here.

B1: (dT)70 (ssDNA)
DNA: TTTTTTTTTTTTTTTTTTTTTTTTTTTTTTTTTTTTTTTTTTTTTTTTTTTTTTTTTTTTTTTTTTTTTT

How the values were obtained:
[1] = molecular target: T1, Pf-SSB (wild type, lacks apicoplast localization signal) (Plasmodium falciparum 3D7, UniProt Q8I415 77-284); assay: Trp fluorescence quenching titration
[2] = molecular target: Pf-SSB crystallized form (Plasmodium falciparum 3D7, UniProt Q8I415 77-194); assay: X-ray crystallography
[3] = molecular target: T1, Pf-SSB (wild type, lacks apicoplast …); assay: Trp fluorescence quenching titration; remark: listed apart in the source

Binder	binding result [1]	binding result [2]	binding result [3]
TTTTTTTTTTTTTTTTTTTTTTTTTTTTTTTTTTT (ssDNA) [(dT)35]	binds	binds	
B1			binds
